This test concerns the target Aβ(pE11-30) peptide. The test is described as follows: direct ELISA, adsorbed Aβ(pE11-30), 1 µg/ml biotinylated antibody with SA-HRP.

Chain of Aβ(pE11-30) peptide (peptide, as listed by the source): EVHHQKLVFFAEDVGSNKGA

Take “biotinylated monoclonal mouse anti Aβ(17-24) antibody (clone 4G8, Covance)”: the ELISA signal relative to clone 13 came out at 5 times lower.

For the origin of these results see patent US20140255414A1.
